Measured values as given in the RNAGym collection of RNA variant scans (doi:10.7554/elife.80360).

B1: Hairpin Ribozyme (parent)
chain: GUCCUCUUUCACGUGCGCGUGAAAGAGAGAAGUGAACCAGAGAAACACACGUUGUGGUAUAUUACCUGGUA

Variants of: B1
Experiment: self-cleavage, relative activity (ratio to wild type); higher = more cleavage; co-transcriptional

Going from GUCCUCUUUCACGUGCGCCUGAAAGAGAGAAGUGAACCAGAGGAACACACGUUGUGGUAUAUUACCUGGUA to GUCCUCUUUCACGUGCGCAUGAAAGAGAGAAGUGAACCAGAGAAACACACGUUGUGGUAUAUAACCUGGUA, the self-cleavage falls from 0.219 to 0.104.

Compared with GUCCUCUUUCACGUGCGCAUGAAAGAGAGAAGUGAACCAGAGAAACACACGUUGUGGUAUAUCACCUGGUA, GUCCUCUUUCACGUGCGCCUGAAAGAGAGAAGUGAACCAGAGAAACACACUUUGUGGUAUAUUACCUGGUA is higher in self-cleavage: 0.213 for the first, 0.973 for the second.

Compared with GUCCUCUUUCACGUGCGCCUGAAAGAGAGAAGUGAACCAGAGAAACACACCUUGUGGUAUAUUACCUGGUA, GUCCUCUUUCACGUGCGCCUGAAAGAGAGAAGUGAACCAGAGAAACACACAUUGUGGUAUAUUACCUGGUA is higher in self-cleavage: 0.775 for the first, 0.903 for the second.

Compared with GUCCUCUUUCACGUGCGCAUGAAAGAGAGAAGUGAACCAGAGAAACACACAUUGUGGUAUAUUACCUGGUA, GUCCUCUUUCACGUGCGCCUGAAAGAGAGAAGUGAACCAGAGAAACACACGUUGUGCUAUAUUACCUGGUA is lower in self-cleavage: 1.07 for the first, 0.25 for the second.

First: GUCCUCUUUCACGUGCGCCUGAAAGAGAGAAGUGAACCAGAGAAACACACGUUGUGUUAUAUUACCUGGUA
Second: GUCCUCUUUCACGUGCGCCUGAAAGAGAGAAGUGAACCAGAGACACACACGUUGUGGUAUAUUACCUGGUA
The self-cleavage of the first is higher: 0.275 for the first, 0.152 for the second.

Compared with GUCCUCUUUCACGUGCGCAUGAAAGAGAGAAGUGAACCAGAGAAACACACGUUGUGGUAUAUUACCGGGUA, GUCCUCUUUCACGUGCGCCUGAAAGAGAGAAGUGAACCAGAGAAACUCACGUUGUGGUAUAUUACCUGGUA is lower in self-cleavage: 0.199 for the first, 0.152 for the second.

Going from GUCCUCUUUCACGUGCGCCUGAAAGAGAGAAGUGAACCAGAGAAACCCACGUUGUGGUAUAUUACCUGGUA to GUCCUCUUUCACGUGCGCCUGAAAGAGAUAAGUGAACCAGAGAAACACACGUUGUGGUAUAUUACCUGGUA, the self-cleavage falls from 0.207 to 0.159.

First: GUCCUCUUUCACGUGCGCCUGAAAGAGAGAAGUGAACGAGAGAAACACACGUUGUGGUAUAUUACCUGGUA
Second: GUCCUCUUUCACGUGCGCCUGAAAGAGAGAAGUGAACCAGAGAAACACACGUUGUGGUAUAUUACUUGGUA
The self-cleavage of the first is lower: 0.142 for the first, 0.528 for the second.

First: GUCCUCUUUCACGUGCGCCUGAAAGAGAGAAGUGAACCAGAGAAACACACGUUGUGGUAUAUUACAUGGUA
Second: GUCCUCUUUCACGUGCGCAUUAAAGAGAGAAGUGAACCAGAGAAACACACGUUGUGGUAUAUUACCUGGUA
The self-cleavage of the first is lower: 0.238 for the first, 0.727 for the second.

Compared with GUCCUCUUUCACGUGCGCCUGAAAGAGAGAAGUGAACCCGAGAAACACACGUUGUGGUAUAUUACCUGGUA, GUCCUCUUUCACGUGCGCCUGAAAGAGAGAAGUGAACCUGAGAAACACACGUUGUGGUAUAUUACCUGGUA is higher in self-cleavage: 0.44 for the first, 0.441 for the second.

First: GUCCUCUUUCACGUGCGCCUGAAAGAGAGAAGUGAACCAGAGAAACACACGUUGUGGUAUAUUACCUGGUC
Second: GUCCUCUUUCACGUGCGCAUGAAAGAGAGAAGUGAACCAGAGAAACACACGUUGUGGUAUAUUACGUGGUA
The self-cleavage of the first is higher: 1.24 for the first, 0.168 for the second.

First: GUCCUCUUUCACGUGCGCAUGAAAGAGAGAAGUGAACCAGAGAAACACACGUUGUGGUAUAUUACUUGGUA
Second: GUCCUCUUUCACGUGCGCAUGAAAGAGAGAAGUGAACCAGAGAAACACACGUUGUGGUAUAAUACCUGGUA
The self-cleavage of the first is higher: 0.344 for the first, 0.0978 for the second.

First: GUCCUCUUUCACGUGCGCCUGAAAGAGAGAAGUGAACCAGAGAAACACAUGUUGUGGUAUAUUACCUGGUA
Second: GUCCUCUUUCACGUGCGCCUGAAAGAGAGAAGUGAACCAGAGAAACACAGGUUGUGGUAUAUUACCUGGUA
The self-cleavage of the first is higher: 0.397 for the first, 0.196 for the second.

Compared with GUCCUCUUUCACGUGCGCCUGCAAGAGAGAAGUGAACCAGAGAAACACACGUUGUGGUAUAUUACCUGGUA, GUCCUCUUUCACGUGCGCCUGGAAGAGAGAAGUGAACCAGAGAAACACACGUUGUGGUAUAUUACCUGGUA is higher in self-cleavage: 0.702 for the first, 0.866 for the second.

Compared with GUCCUCUUUCACGUGCGCCUGAUAGAGAGAAGUGAACCAGAGAAACACACGUUGUGGUAUAUUACCUGGUA, GUCCUCUUUCACGUGCGCAUGAAAGAGAGAAGUGAACCAGAGAAACACACGUUGUGUUAUAUUACCUGGUA is lower in self-cleavage: 0.656 for the first, 0.289 for the second.

Compared with GUCCUCUUUCACGUGCGCCUGAAAGAGAGAAGUGAACCAGGGAAACACACGUUGUGGUAUAUUACCUGGUA, GUCCUCUUUCACGUGCGCAUGAAAGAGAGAAGUAAACCAGAGAAACACACGUUGUGGUAUAUUACCUGGUA is higher in self-cleavage: 0.743 for the first, 1.02 for the second.

First: GUCCUCUUUCACGUGCGCAUGAAAGAGAGAAGUCAACCAGAGAAACACACGUUGUGGUAUAUUACCUGGUA
Second: GUCCUCUUUCACGUGCGCAUGAAAGAGAGAAGUUAACCAGAGAAACACACGUUGUGGUAUAUUACCUGGUA
The self-cleavage of the first is higher: 1.32 for the first, 1.18 for the second.

Going from GUCCUCUUUCACGUGCGCAUGAAAGAGAGAAGUGAACCAGAAAAACACACGUUGUGGUAUAUUACCUGGUA to GUCCUCUUUCACGUGCGCAUGAAAGACAGAAGUGAACCAGAGAAACACACGUUGUGGUAUAUUACCUGGUA, the self-cleavage rises from 0.202 to 0.321.

Going from GUCCUCUUUCACGUGCGCAUGAAAGAAAGAAGUGAACCAGAGAAACACACGUUGUGGUAUAUUACCUGGUA to GUCCUCUUUCACGUGCGCCUGAAAGAGAGCAGUGAACCAGAGAAACACACGUUGUGGUAUAUUACCUGGUA, the self-cleavage falls from 0.243 to 0.221.

First: GUCCUCUUUCACGUGCGCCUGAAAGAGAGAAUUGAACCAGAGAAACACACGUUGUGGUAUAUUACCUGGUA
Second: GUCCUCUUUCACGUGCGCAGGAAAGAGAGAAGUGAACCAGAGAAACACACGUUGUGGUAUAUUACCUGGUA
The self-cleavage of the first is lower: 0.173 for the first, 0.786 for the second.

Going from GUCCUCUUUCACGUGCGCAUGAAAAAGAGAAGUGAACCAGAGAAACACACGUUGUGGUAUAUUACCUGGUA to GUCCUCUUUCACGUGCGCCAGAAAGAGAGAAGUGAACCAGAGAAACACACGUUGUGGUAUAUUACCUGGUA, the self-cleavage rises from 0.368 to 0.965.

Going from GUCCUCUUUCACGUGCGCCCGAAAGAGAGAAGUGAACCAGAGAAACACACGUUGUGGUAUAUUACCUGGUA to GUCCUCUUUCACGUGCGCCGGAAAGAGAGAAGUGAACCAGAGAAACACACGUUGUGGUAUAUUACCUGGUA, the self-cleavage rises from 0.809 to 1.05.

Going from GUCCUCUUUCACGUGCGCCUGAAAGAGAGAAGUGAACCAGAGAAACACACGUUGUGGUAUAUUACCUGAUA to GUCCUCUUUCACGUGCGCCUGAAAGAGAGAAGUGAACCAGAGAAACACACGUUGUGGUAUAUUACCUGCUA, the self-cleavage falls from 0.403 to 0.369.

Compared with GUCCUCUUUCACGUGCGCCUGAAAGAGAGAAGUGAACCAGAGAAACACUCGUUGUGGUAUAUUACCUGGUA, GUCCUCUUUCACGUGCGCCUGAAAGAGUGAAGUGAACCAGAGAAACACACGUUGUGGUAUAUUACCUGGUA is higher in self-cleavage: 0.207 for the first, 0.63 for the second.

First: GUCCUCUUUCACGUGCGCAUGAAAGAGAGAAGUGAACCAGAGAAACACACGUUUUGGUAUAUUACCUGGUA
Second: GUCCUCUUUCACGUGCGCAUGAAAGAGAGAAGUGAACCAGAGAAACACACGUUAUGGUAUAUUACCUGGUA
The self-cleavage of the first is higher: 0.535 for the first, 0.51 for the second.

Going from GUCCUCUUUCACGUGCGCAUGAAAGAGAGAAGUGAACCACAGAAACACACGUUGUGGUAUAUUACCUGGUA to GUCCUCUUUCACGUGCGCCUGAAAGAGAGAAGUGAACCACAGAAACACACGUUGUGGUAUAUUACCUGGUA, the self-cleavage rises from 0.0669 to 0.191.

Going from GUCCUCUUUCACGUGCGCAUGAAAGAGAGAAGUGAACCAGAGAAACACACGAUGUGGUAUAUUACCUGGUA to GUCCUCUUUCACGUGCGCCUGAAAGAGAGAAGUUAACCAGAGAAACACACGUUGUGGUAUAUUACCUGGUA, the self-cleavage rises from 0.809 to 1.45.

Going from GUCCUCUUUCACGUGCGCCUGAAAGAGAGAAGUGAUCCAGAGAAACACACGUUGUGGUAUAUUACCUGGUA to GUCCUCUUUCACGUGCGCCUGAAAGAGAGAAGUGGACCAGAGAAACACACGUUGUGGUAUAUUACCUGGUA, the self-cleavage rises from 0.603 to 0.74.

Going from GUCCUCUUUCACGUGCGCAUGAAAGAGAGAAGUGAACCAGAGAAACACACGUUGUGGUAUAUUACCUGGAA to GUCCUCUUUCACGUGCGCCUGAAAGAGAGAAGUGAACCAGAGAAACACACGUUGUCGUAUAUUACCUGGUA, the self-cleavage falls from 0.599 to 0.124.

First: GUCCUCUUUCACGUGCGCCUGAAAGAGAGAAGUGAAGCAGAGAAACACACGUUGUGGUAUAUUACCUGGUA
Second: GUCCUCUUUCACGUGCGCCUGAAAGAGAGAAGUGAAACAGAGAAACACACGUUGUGGUAUAUUACCUGGUA
The self-cleavage of the first is higher: 0.356 for the first, 0.32 for the second.

Going from GUCCUCUUUCACGUGCGCCUGAAAGAGAGAAGUGAAUCAGAGAAACACACGUUGUGGUAUAUUACCUGGUA to GUCCUCUUUCACGUGCGCCUGAAAGAGAGAAGUGAACCAGAGAAACACACGUUGUGGUAUAUUAUCUGGUA, the self-cleavage falls from 0.454 to 0.337.

Compared with GUCCUCUUUCACGUGCGCAUGAAAGAGAGAAGAGAACCAGAGAAACACACGUUGUGGUAUAUUACCUGGUA, GUCCUCUUUCACGUGCGCAUGAAAGAGAGAACUGAACCAGAGAAACACACGUUGUGGUAUAUUACCUGGUA is higher in self-cleavage: 0.0829 for the first, 0.111 for the second.

First: GUCCUCUUUCACGUGCGCAUGAAAGAGAGAAGUGAACCAGAGAAACACACGUUGUAGUAUAUUACCUGGUA
Second: GUCCUCUUUCACGUGCGCAUGAAAGAGAGAAGUGAACCAGAGAAACACACGUUGUCGUAUAUUACCUGGUA
The self-cleavage of the first is lower: 0.124 for the first, 0.136 for the second.

Compared with GUCCUCUUUCACGUGCGCCUGAAAGAGAGAAGUGAACCAGAGAAUCACACGUUGUGGUAUAUUACCUGGUA, GUCCUCUUUCACGUGCGCCUGAAAGAGAGAAGUGAACCAGAGAAACACACGUUGUGGUAUAUUACCUUGUA is higher in self-cleavage: 0.142 for the first, 0.213 for the second.

Going from GUCCUCUUUCACGUGCGCCUGAAACAGAGAAGUGAACCAGAGAAACACACGUUGUGGUAUAUUACCUGGUA to GUCCUCUUUCACGUGCGCAUGAAAGAGAGAAGUGAACCAGAGAAACACACGUUGUGGCAUAUUACCUGGUA, the self-cleavage rises from 0.46 to 0.856.

Compared with GUCCUCUUUCACGUGCGCCUGAAAGAGAGAAGUGAACCAGAGAAACACACGUUGUGGUAUCUUACCUGGUA, GUCCUCUUUCACGUGCGCCUGAAAGAGAGAAGUGAACCAGAGAAACACACGUUAUGGUAUAUUACCUGGUA is higher in self-cleavage: 0.333 for the first, 0.432 for the second.

Going from GUCCUCUUUCACGUGCGCCUGAAAGAGAGAAGUGAACCAGAGAAACACACGUUGUGGUAUAUUCCCUGGUA to GUCCUCUUUCACGUGCGCCUGAAAGAGAGAAGUGAACCAGAGAAACACACGUUGUGGUAUAUUUCCUGGUA, the self-cleavage falls from 0.182 to 0.135.

First: GUCCUCUUUCACGUGCGCCUAAAAGAGAGAAGUGAACCAGAGAAACACACGUUGUGGUAUAUUACCUGGUA
Second: GUCCUCUUUCACGUGCGCCUGAAAGCGAGAAGUGAACCAGAGAAACACACGUUGUGGUAUAUUACCUGGUA
The self-cleavage of the first is higher: 0.657 for the first, 0.272 for the second.
